The data set is described as follows: protein stability index of a GFP-peptide fusion (GPS, HEK-293T) (PSI 1-6); higher = more stable.
[1] abbreviates: treatment: DMSO, c terminus: a fixed tail appended.
The mark [2] stands for this setting: treatment: MLN4924 1 uM, 8 h, c terminus: a fixed tail appended.
Setting [3] is: treatment: DMSO, c terminus: native.
[4] abbreviates: treatment: MLN4924 1 uM, 8 h, c terminus: native.

± gives the standard deviation.
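Further: 24-mer peptide tiles fused after GFP, lentivirally expressed, FACS-sorted into six equal bins by GFP/DsRed ratio, decoded by Illumina sequencing, PSI is the read-weighted mean bin number.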

For SIIAVAMQRGARLPAEVAGLSQVL [POMT2], the protein stability index stood at 2.35 ± 0.59 under setting [1] and 2.01 ± 0.18 under setting [2]. The like results for SIQKLSNESRYMIYEFWENSSVWN [NECAB1] were, in that order, 2.15 ± 0.45 and 2.01 ± 0.3. For SIQMNVAEVSWEPGRREGCDICAG [RPS21], in that order: 2.7 ± 0.92 and 3.35 ± 1.3. The like results for SKDNMRTRIMIGLTLVFFVQITGQ [SLC2A12] were, in that order, 2.55 ± 0.6 and 3.4 ± 0.17. Regarding SKGMQDFNYLHTNCFEITLELSCD [CPN1], the protein stability index is, setting by setting: under setting [1], 2.97 ± 0.48; under setting [2], 2.72 ± 0.58.

SLASQVHAAAVNGDKGALQRLIVG [INVS] came in with a protein stability index under setting [1] of 3.02 ± 0.22 and a protein stability index under setting [2] of 3.19 ± 0.29. For SLGGCSQDFLLFSPEVESLPVASS [NFE2L1], in that order: 2.49 ± 0.52 and 2.74 ± 0.24. Turning to SLIEDSQALHKRPKLDSEYYCFG [LURAP1L], the protein stability index was 2.57 ± 0.4 under setting [3] and 3.11 ± 0.45 under setting [4]. For the sequence SLPLQDELAFAEDLVLDEEGARAA [ESRRA], the protein stability index reads like this: under setting [1], 3.52 ± 0.68; under setting [2], 4.31 ± 0.58. Take SLRFNGRVLFIKDVIGDEICCWSF [KCTD10]: the protein stability index was determined as 2.65 ± 0.49 under setting [1] and 2.42 ± 0.45 under setting [2]. SLRKAIETVYAAYLPKNTHPFLYL [MLH1]: under setting [1], the protein stability index stood at 3.76 ± 0.68.

SLSKKYRQDAKYLNMRSTYAKLAA [SEC22B] registered a protein stability index under setting [1] of 2.56 ± 0.24 and a protein stability index under setting [2] of 2.62 ± 0.073. The like results for SNEQLKVTQEPRAKKGRRNQSVEP [ZMYND11] were, in that order, 5.2 ± 0.32 and 5.12 ± 0.44. For SNYFSMDSMEGKRSPYAGLQLGAA [TRIM29], in that order: 2.88 ± 0.3 and 2.99 ± 0.22. The like results for SPAEDFVLVAETTMARIRRVYVSG [APMAP] were, in that order, 2.22 ± 0.29 and 2.05 ± 0.42. As for SPEPPSLYGALNPQYEFKEAAGSF [IRX6], the protein stability index is, setting by setting: under setting [1], 3.47 ± 0.24; under setting [2], 3.6 ± 0.22. The like results for SPEVLTPQLSPGSGTPQAGTPSPS [RTN2] were, in that order, 5.39 ± 0.31 and 5.45 ± 0.2. The like results for SPGLSYASHTVGFTPPTSLTRAGM [CCDC6] were, in that order, 3.01 ± 0.12 and 3.37 ± 0.31.

Consider SPRLTFQCLEDLVNHYSEVADGLC [SLA], for which the protein stability index by setting is: under setting [1], 2.79 ± 0.45; under setting [2], 3.19 ± 0.54.

SPSEKNSSFTWSVPSSGYGAVTAS [SMTNL2] displayed a protein stability index under setting [1] of 3.65 ± 0.18 and a protein stability index under setting [2] of 3.74 ± 0.073.

As for SPTSGSPRGSHSSALERLETKLHL [LURAP1L], the protein stability index by setting is: under setting [1], 3.64 ± 0.4; under setting [2], 3.94 ± 0.36. For SPVTTSPTAATTQNPVLSKLLMAD [LCOR], in that order: 4.536 ± 0.031 and 4.44 ± 0.081. In the case of SPVVVEKSNSYPHQLYTSSSHHSH [KMT2E], the protein stability index is 3.76 ± 0.1 under setting [1] and 3.82 ± 0.38 under setting [2]. For the sequence SQDLLPPPNPYPLPQEHSQIYHCT [TBX5], the protein stability index worked out at 4.02 ± 0.22 under setting [1] and 4.11 ± 0.22 under setting [2]. For SQMSPLSLYGENSNSLSSAEPLKE [ATF6], in that order: 5.01 ± 0.3 and 5.03 ± 0.22. For SQTEAHYSCQSKEILRYMKEFTLL [P2RY14], in that order: 2.21 ± 0.15 and 2.3 ± 0.23. Consider SQTPILQALQHVQASCDEAHKMKF [INTS3], for which the protein stability index was found to be 3.88 ± 0.14 under setting [1] and 3.93 ± 0.21 under setting [2]. The like results for SRQDKPLSPAGSSQEAADTPDTRH [YJU2B] were, in that order, 5.56 ± 0.14 and 5.46 ± 0.13. For SSAAMQSSCSSTSGGGGGGGGGGG [CCDC6], in that order: 5.2 ± 0.49 and 5.16 ± 0.19. Regarding SSEEGWRLFKIDKEYLLKMATEE [SAT1], the protein stability index is, setting by setting: under setting [3], 2.78 ± 0.62; under setting [4], 2.88 ± 0.68. Consider SSFPGSLPQETNLTLKVCKPQAPQ, for which the protein stability index runs as follows: under setting [1], 4.09 ± 0.21; under setting [2], 4.14 ± 0.38. Regarding SSPGNNNGTSIEDGQIPEIIFYT [BTBD1], the protein stability index reads like this: under setting [3], 3.14 ± 0.46; under setting [4], 3.44 ± 0.56.

With SSSINSPDRASGPEGSLSQTMAGS [FAM104A], the protein stability index is, setting by setting: under setting [1], 5 ± 0.16; under setting [2], 5.04 ± 0.1. The like results for SSVYKQQWFAMLRAEQDSEVGPQE [GMCL1] were, in that order, 4.08 ± 0.37 and 4.16 ± 0.24. The like results for SSWKHGSGTQYVSTRQTQSWTAVT [C18orf25] were, in that order, 2.5 ± 0.11 and 2.52 ± 0.47. The like results for STQEPQSPREGEELKPEDKDPRDP [GNAS] were, in that order, 5.59 ± 0.34 and 5.42 ± 0.48. Regarding STRVCLQPIRGVEGSDYINASFID [PTPRD], the protein stability index is, setting by setting: under setting [1], 3.18 ± 0.29; under setting [2], 3.25 ± 0.41. For SVGTYIIDLLTFLTGQKAVKVHGL [GFOD1], in that order: 3.23 ± 0.42 and 3.32 ± 0.54. For SVLQSVWMEVLVLGVAQRSLPLQD [ESRRA], in that order: 3.62 ± 0.79 and 3.38 ± 0.57. The like results for SWFDNGSICMRMEILGCPLPDPNN [CPXM2] were, in that order, 2.09 ± 0.089 and 2.3 ± 0.47. As for SWIQLPPMQERRASFYACRLDKHL [KLHL14], the protein stability index under setting [1] worked out at 2.32 ± 0.29 and the protein stability index under setting [2] is 2.26 ± 0.34.

Take SWLTRRAIRPENRAPGAGLGQDRQ [EMD]: the protein stability index reads like this: under setting [1], 3.98 ± 0.27; under setting [2], 4.05 ± 0.19. The like results for SYDVALHRTRLQDLRVLVSNASED [SCARA5] were, in that order, 3.77 ± 0.18 and 3.93 ± 0.27. The like results for TAEDAELSDFEECEETGELFEEPA [FCHSD1] were, in that order, 5.58 ± 0.24 and 5.5 ± 0.28. For TAEDSNDIYILPSDNSGQVSPPES [BCL2L13], in that order: 5.2 ± 0.26 and 5.21 ± 0.1. Take TCRNPACGPQWEMSEWSECTAKCG [ADAMTSL2]: the protein stability index reads like this: under setting [1], 3.28 ± 0.29; under setting [2], 3.93 ± 0.53. The like results for TDKLVTPGKYFSAAEYHAQRLKAV [IQUB] were, in that order, 3.4 ± 0.21 and 3.19 ± 0.31.

For TDKQPLSDAWTYCISKNEWIQFNH [KLHDC2], the protein stability index is 2.5 ± 0.2 under setting [1] and 2.67 ± 0.27 under setting [2]. Turning to TDRRSFHEVREFKQLIYRVRRTDD [RIT1], the protein stability index by setting is: under setting [1], 3.03 ± 0.085; under setting [2], 3.12 ± 0.14. For TEGGNDDSDFRELHTAREFSEEDE [RTN2], in that order: 5.42 ± 0.36 and 5.13 ± 0.71. Consider TELLAERFYYQALSVAPQIGMPFN [SMG5], for which the protein stability index reads like this: under setting [1], 2.21 ± 0.34; under setting [2], 2.16 ± 0.17.

Consider TEMELLEVSQHIKMRMGGRVDFEE [CABP4], for which the protein stability index was 4.11 ± 0.25 under setting [1] and 4.08 ± 0.099 under setting [2]. For TEQAAEYVPEKVKKAEKKLEENPY [CSTF3], in that order: 5.52 ± 0.3 and 5.37 ± 0.14. For TFDAITTIRGEVMFFKDRFYMRTN [MMP1], in that order: 2.25 ± 0.41 and 2.07 ± 0.19.

On to TFKSLSHIDPDVLYPSLNVTSFDS [ALG2], for which the protein stability index stood at 2.77 ± 0.14 under setting [1] and 2.92 ± 0.19 under setting [2].

TGITLLRVKFKSQQHRQGRSHHLE [PTGFR] came in with a protein stability index under setting [1] of 2.24 ± 0.29 and a protein stability index under setting [2] of 2.44 ± 0.34. For TGRHYWEVDVQEAGAGWWVGAAYA [TRIM14], in that order: 2.62 ± 0.8 and 2.58 ± 0.82. The like results for TGSKEKGLTKKRTKVQKKSLLLKK [NOP53] were, in that order, 4.48 ± 0.24 and 4.72 ± 0.22. The like results for TGTYQRAILQNHTDFKDKIVLDVG [CARM1] were, in that order, 3.34 ± 0.092 and 3.35 ± 0.27. THHKLCTFILKNPPENSDSGTGKK [EIF5]: the protein stability index runs as follows: under setting [1], 3.95 ± 0.27; under setting [2], 4.28 ± 0.18.

Regarding THNIAHGSLGFEPVYVSCIAQDTC [SPAG8], the protein stability index reads like this: under setting [1], 2.69 ± 0.14; under setting [2], 2.64 ± 0.2. The like results for TIMQAVSQIRLNREHKETCEMDWS [TEKT4] were, in that order, 2.3 ± 0.27 and 2.44 ± 0.21. The like results for TKAGHSLELIEPLIKFQVGLKKLN [VDR] were, in that order, 2.19 ± 0.38 and 2.42 ± 0.25. The like results for TKLEERSRVKCDQYWPSRGTETHG [PTPRD] were, in that order, 3.97 ± 0.14 and 3.71 ± 0.54.

For the sequence TLFKKIQALQKEKETLAVNYEKEE [CCDC6], the protein stability index is, setting by setting: under setting [1], 3.52 ± 0.27; under setting [2], 3.35 ± 0.086.

As to TLGGLNPSPSEVITPWTPSPSEKN [SMTNL2], the protein stability index by setting is: under setting [1], 5.21 ± 0.25; under setting [2], 5.08 ± 0.14. For TLREITDQEHNVAALKQAIKDKEA [TEKT4], in that order: 4.92 ± 0.27 and 4.88 ± 0.26.

Consider TMAQHAEVLVKSNNLTDRIVVIPG [CARM1], for which the protein stability index was found to be 3.08 ± 0.22 under setting [1] and 3.36 ± 0.23 under setting [2]. In the case of TMRYINGLDPEPLPLMDLCRRSIR [SPSB4], the protein stability index was 3.31 ± 0.36 under setting [1] and 3.42 ± 0.3 under setting [2].

As for TNSSSLRLPRQNSDGGQKNKPREH [WSB1], the protein stability index is 5.02 ± 0.15 under setting [1] and 4.93 ± 0.072 under setting [2]. Regarding TNVESQLAEIRCDLERQNQEYQVL [KRT34], the protein stability index was 4.32 ± 0.21 under setting [1] and 4.27 ± 0.17 under setting [2]. For the sequence TPLLAASVTGHTNIVEYLIQEQPG [FEM1A], the protein stability index is, setting by setting: under setting [1], 3.39 ± 0.17; under setting [2], 3.67 ± 0.32.

The values above are taken from the supplement of paper PMC10567573.
